Where two headings read alike, the source gives them in different places. Where no end group is shown, it is not given here. [ ]: non-standard residue; d: D form. code ∗ = not defined here
Legend:
[1] = Test for the stability of the polypeptide (LC-MS purity, pH 8.0, 40° C.); type: physicochemical; conditions: for Purity (%) 0 day: 4 mg/ml
Method: The following method was used to determine the chemical stability of some polypeptides in the present invention.
(§1) 1 mg of each sample was dissolved in a buffer solution, which contains 150 mM sodium chloride and 20 mM phosphate, from which a solution of concentration of 4 mg/ml was prepared and its pH is 8.0. The testing sample solutions were placed in a thermostat of 40° C. LC-MS was used to determine the purity of polypeptide. Correlation between the reduction ratio of the main peak area and time reflects the chemical stability of the polypeptide. Expressed as a percentage, purity is the percentage corresponding to the target peak in the total of all peaks including impurities. Using LC, the main peak was separated from any impurities, and the relative percentages of main peak and impurities at times 0 (before incubation at 40° C. at pH 4.5-8) and after 5, 10 and 15 days were determined. MS was used to identify the main peak as the target molecule. The main peak area plus the peak areas of any impurities gives a total equal to 100%, with relative purity calculated at a certain time (5, 10 or 15 days) against the purity at time 0 compared to the purity before incubation at 40° C. at pH 4.5-8.

[2] = Stability of Exendin-4 derivatives under basic conditions (PBS pH 7.4, 40° C., LC-MS purity); type: physicochemical; conditions: for 5 days Relative Purity (%) / 10 days Relative Purity (%): compared with the corresponding sample at 0 day
Method: as §1
(§2) The following method was used to determine the chemical stability of various modified exendins having a sequence identity of at least 90% to SEQ ID no. 17 under acidic/basic conditions. […] Purity was determined by LC-MS as percentage of the target peak in the total of all peaks including impurities as described in example 3.
(§3) 4 mg Exendin-4 derivative polypeptide (described in Table 3 above) was taken and dissolved in PBS buffer (KH2PO4 0.27 g/L, Na2HPO4 1.42 g/L, NaCl 8 g/L and KCl 0.2 g/L, pH 7.4) so as to prepare a solution at concentration of 4 mg/ml. The testing sample solutions were placed in a thermostat setting at 40° C. LC-MS was used to determine the purity of polypeptide. The chemical stability of the polypeptide was expressed as the correlation between the reduction ratio of the main peak area and time.

[3] = type: physicochemical; conditions: for 0 day Purity (%) / 5 days Purity (%) / 5 days Relative Purity (%) / 10 days Purity (%) / 10 days Relative Purity (%) / 15 days Purity (%) / 15 days Relative Purity (%): pH 4.5, 40° C.; for 5 days Relative Purity (%) / 10 days Relative Purity (%) / 15 days Relative Purity (%): compared with the corresponding sample at 0 day
Method: as §1, §2
as §3, with “2 below)” for “3 above)”, “was” for “was taken and”, “20 mM sodium” for “PBS”, “(pH 4.5)” for “(KH2PO4 0.27 g/L, Na2HPO4 1.42 g/L, NaCl 8 g/L and KCl 0.2 g/L, pH 7.4)”, “time and determined as described above.” for “time.”

normal mice = test: Oral glucose tolerance test in normal mice after subcutaneous injection; type: in vivo; conditions: unit not given
Text: Polypeptide of SEQ ID NO: 25 was modified with polyethylene glycol of molecular weight of about 40,000 (sample 4 as described in Examples 3 and 4 above).

[4] = first day after s.c. injection, dosage (20)
[5] = first day after s.c. injection, dosage (80)
[6] = third day after s.c. injection, dosage (20)
[7] = third day after s.c. injection, dosage (80)

Substance: HdAEGTFTSDL SKQMEEEAVR LFIEWLKNGG PSSGAPPPC-PEG40K [Sample 4]
- stability of the polypeptide (conclusion in words) [1]: very stable
- Purity (%) 0 day [1]: 99.7%
- Purity (%) 5th day [1]: 99.4%
- Purity (%) 10th day [1]: 99.0%
- Purity (%) 15th day [1]: 99.3%
- 0 day Purity (%) [2]: 99.7%
- 5 days Purity (%) [2]: 99.0%
- 5 days Relative Purity (%) [2]: 99.30%
- 10 days Purity (%) [2]: 98.2%
- 10 days Relative Purity (%) [2]: 98.50%
- stability compared with samples 2-1 and 9-1 [3]: even higher stability
- 0 day Purity (%) [3]: 99.7%
- 5 days Purity (%) [3]: 99.4%
- 5 days Relative Purity (%) [3]: 99.70%
- 10 days Purity (%) [3]: 99.3%
- 10 days Relative Purity (%) [3]: 99.60%
- 15 days Purity (%) [3]: 99.0%
- 15 days Relative Purity (%) [3]: 99.30%
- AUC (area under the curve of the blood glucose level) (normal mice; [4]): 176.4 ± 22.0 mg·h/dL
- Blood Glucose level 0 min (normal mice; [4]): 116.6 ± 10.8 mg/dL
- Blood Glucose level 30 min (normal mice; [4]): 95.7 ± 9.9 mg/dL
- Blood Glucose level 60 min (normal mice; [4]): 88.9 ± 28.6 mg/dL
- Blood Glucose level 120 min (normal mice; [4]): 65.4 ± 5.1 mg/dL
- AUC (area under the curve of the blood glucose level) (normal mice; [5]): 166.6 ± 16.7 mg·h/dL
- Blood Glucose level 0 min (normal mice; [5]): 122.2 ± 9.1 mg/dL
- Blood Glucose level 30 min (normal mice; [5]): 92.1 ± 12.4 mg/dL
- Blood Glucose level 60 min (normal mice; [5]): 76.7 ± 8.7 mg/dL
- Blood Glucose level 120 min (normal mice; [5]): 64.9 ± 7.5 mg/dL
- AUC (area under the curve of the blood glucose level) (normal mice; [6]): 253.6 ± 24.4 mg·h/dL
- Blood Glucose level 0 min (normal mice; [6]): 96.2 ± 8.6 mg/dL
- Blood Glucose level 30 min (normal mice; [6]): 172.8 ± 33.2 mg/dL
- Blood Glucose level 60 min (normal mice; [6]): 132.1 ± 12.4 mg/dL
- Blood Glucose level 120 min (normal mice; [6]): 88.3 ± 7.8 mg/dL
- AUC (area under the curve of the blood glucose level) (normal mice; [7]): 217.0 ± 21.9 mg·h/dL
- Blood Glucose level 0 min (normal mice; [7]): 89.5 ± 9.3 mg/dL
- Blood Glucose level 30 min (normal mice; [7]): 149.3 ± 32.4 mg/dL
- Blood Glucose level 60 min (normal mice; [7]): 108.6 ± 8.8 mg/dL
- Blood Glucose level 120 min (normal mice; [7]): 77.1 ± 8.4 mg/dL

Substance: HdAEGTFTSDL SKQNleEEEAVR LFIEWLKQGG PSSGAPPPS-NH2 [Sample 3]
- Purity (%) 0 day [1]: 98.9%
- Purity (%) 5th day [1]: 98.8%
- Purity (%) 10th day [1]: 98.8%
- Purity (%) 15th day [1]: 98.8%
- 0 day Purity (%) [2]: 98.9%
- 5 days Purity (%) [2]: 98.6%
- 5 days Relative Purity (%) [2]: 99.70%
- 10 days Purity (%) [2]: 98.5%
- 10 days Relative Purity (%) [2]: 99.60%
- 0 day Purity (%) [3]: 98.9%
- 5 days Purity (%) [3]: 98.7%
- 5 days Relative Purity (%) [3]: 99.80%
- 10 days Purity (%) [3]: 98.7%
- 10 days Relative Purity (%) [3]: 99.80%
- 15 days Purity (%) [3]: 98.6%
- 15 days Relative Purity (%) [3]: 99.70%

Substance: HdAEGTFTSDL SKQMEEEAVR LFIEWLVKGG PSSGAPPPK* (H[dA]EGTFTSDLSKQMEEEAVRLFIEWLVKGGPSSGAPPPK(code ∗); reading uncertain; also: C-terminal modification (*)) [Sample 11]
- 0 day Purity (%) [2]: 98.3%
- 5 days Purity (%) [2]: 97.1%
- 5 days Relative Purity (%) [2]: 98.78%
- 10 days Purity (%) [2]: 96.4%
- 10 days Relative Purity (%) [2]: 98.07%
- 0 day Purity (%) [3]: 98.3%
- 5 days Purity (%) [3]: 96.7%
- 5 days Relative Purity (%) [3]: 98.37%
- 10 days Purity (%) [3]: 95.9%
- 10 days Relative Purity (%) [3]: 97.56%
- 15 days Purity (%) [3]: 94.8%
- 15 days Relative Purity (%) [3]: 96.44%

Substance: HdAEGTFTTSDL SKQNleEEEAVR LFIEWLKQGG PSSGAPPPC(AM) [Sample 9-2]
- 0 day Purity (%) [2]: 99.0%
- 5 days Purity (%) [2]: 98.8%
- 5 days Relative Purity (%) [2]: 99.80%
- 10 days Purity (%) [2]: 98.7%
- 10 days Relative Purity (%) [2]: 99.70%
- 0 day Purity (%) [3]: 99.0%
- 5 days Purity (%) [3]: 98.9%
- 5 days Relative Purity (%) [3]: 99.90%
- 10 days Purity (%) [3]: 98.8%
- 10 days Relative Purity (%) [3]: 99.80%
- 15 days Purity (%) [3]: 98.8%
- 15 days Relative Purity (%) [3]: 99.80%

Substance: HGEGTFTSDLSKQMEEEAVRLFIEWLKQGGPSSGAPPPK* [Sample 5]
- 0 day Purity (%) [2]: 98.3%
- 5 days Purity (%) [2]: 95.7%
- 5 days Relative Purity (%) [2]: 97.36%
- 10 days Purity (%) [2]: 94.2%
- 10 days Relative Purity (%) [2]: 95.83%
- 0 day Purity (%) [3]: 98.3%
- 5 days Purity (%) [3]: 96.3%
- 5 days Relative Purity (%) [3]: 97.97%
- 10 days Purity (%) [3]: 95.1%
- 10 days Relative Purity (%) [3]: 96.74%
- 15 days Purity (%) [3]: 94.1%
- 15 days Relative Purity (%) [3]: 95.73%

Substance: HdAEGTFTSDL SKQMEEEAVR LFIEWLKNGG PSSGAPPPC-NH2 [Sample 2-1]
- stability of the polypeptide (conclusion in words) [1]: not very stable
- Purity (%) 0 day [1]: 98%
- Purity (%) 5th day [1]: 93.1%
- Purity (%) 10th day [1]: 90.4%
- Purity (%) 15th day [1]: 88.2%
- 0 day Purity (%) [3]: 98.0%
- 5 days Purity (%) [3]: 93.8%
- 5 days Relative Purity (%) [3]: 95.71%
- 10 days Purity (%) [3]: 89.6%
- 10 days Relative Purity (%) [3]: 91.43%
- 15 days Purity (%) [3]: 86.7%
- 15 days Relative Purity (%) [3]: 88.47%
- main impurity ([3]; stability test, cysteine at C-terminal end): dimers formed by oxidization of the mercapto-groups

Substance: HdAEGTFTTSDL SKQNleEEEAVR LFIEWLKQGG PSSGAPPPC-PEG40K [Sample 13]
- 0 day Purity (%) [2]: 99.8%
- 5 days Purity (%) [2]: 99.3%
- 5 days Relative Purity (%) [2]: 99.50%
- 10 days Purity (%) [2]: 98.9%
- 10 days Relative Purity (%) [2]: 99.10%
- stability compared with samples 2-1 and 9-1 [3]: even higher stability
- 0 day Purity (%) [3]: 99.8%
- 5 days Purity (%) [3]: 99.6%
- 5 days Relative Purity (%) [3]: 99.80%
- 10 days Purity (%) [3]: 99.7%
- 10 days Relative Purity (%) [3]: 99.90%
- 15 days Purity (%) [3]: 99.5%
- 15 days Relative Purity (%) [3]: 99.70%
